Test results from the MegaScale stability set (Tsuboyama et al. 2023).

B1: EEHEE_rd3_1049 (parent)
chain: TTVKLGDIKVTFDNPEKAKKYAQKLAKIYQLTVHVHGDTIHVK

Variants of: B1
Test: folding stability dG (cDNA display proteolysis); higher = more stable
Settings: PBS, room temperature

Variant	folding stability dG [kcal/mol]
TTVKLGDIKVTFDNPEKPKKYAQKLAKIYQLTVHVHGDTIHVK [A18P]	-0.013
TTVKLGDIKVTFDNPEKHKKYAQKLAKIYQLTVHVHGDTIHVK [A18H]	0.152
TTVKLGDIKVTFDNPEKCKKYAQKLAKIYQLTVHVHGDTIHVK [A18C]	2.03
TTVKLGDIKVTFDNPEKDKKYAQKLAKIYQLTVHVHGDTIHVK [A18D]	-0.113
TTVKLGDIKVTFDNPEKNKKYAQKLAKIYQLTVHVHGDTIHVK [A18N]	0.152
TTVKLGDIKVTFDNPEKEKKYAQKLAKIYQLTVHVHGDTIHVK [A18E]	-0.325
TTVKLGDIKVTFDNPEKSKKYAQKLAKIYQLTVHVHGDTIHVK [A18S]	0.232
TTVKLGDIKVTFDNPEKLKKYAQKLAKIYQLTVHVHGDTIHVK [A18L]	0.902
TTVKLGDIKVTFDNPEKFKKYAQKLAKIYQLTVHVHGDTIHVK [A18F]	0.877
TTVKLGDIKVTFDNPEKGKKYAQKLAKIYQLTVHVHGDTIHVK [A18G]	0.641
TTVKLGDIKVTFDNPEKQKKYAQKLAKIYQLTVHVHGDTIHVK [A18Q]	0.175
TTVKLGDIKVTFDNPEKRKKYAQKLAKIYQLTVHVHGDTIHVK [A18R]	0.343
TTVKLGDIKVTFDNPEKMKKYAQKLAKIYQLTVHVHGDTIHVK [A18M]	0.64
TTVKLGDIKVTFDNPEKIKKYAQKLAKIYQLTVHVHGDTIHVK [A18I]	0.682
TTVKLGDIKVTFDNPEKTKKYAQKLAKIYQLTVHVHGDTIHVK [A18T]	0.288
TTVKLGDIKVTFDNPEKKKKYAQKLAKIYQLTVHVHGDTIHVK [A18K]	0.046
TTVKLGDIKVTRDNPEKAKKYAQKLAKIYQLTVHVHGDTIHVK [F12R]	0.188
TTVKLGDIKVTQDNPEKAKKYAQKLAKIYQLTVHVHGDTIHVK [F12Q]	0.131
TTVKLGDIKVTYDNPEKAKKYAQKLAKIYQLTVHVHGDTIHVK [F12Y]	0.563
TTVKLGDIKVTVDNPEKAKKYAQKLAKIYQLTVHVHGDTIHVK [F12V]	0.419
TTVKLGDIKVTPDNPEKAKKYAQKLAKIYQLTVHVHGDTIHVK [F12P]	0.089
TTVKLGDIKVTWDNPEKAKKYAQKLAKIYQLTVHVHGDTIHVK [F12W]	0.742
TTVKLGDIKVTSDNPEKAKKYAQKLAKIYQLTVHVHGDTIHVK [F12S]	-0.062
TTVKLGDIKVTTDNPEKAKKYAQKLAKIYQLTVHVHGDTIHVK [F12T]	0.094

Variant	folding stability dG [kcal/mol]
TTVKLGDIKVTFGNPEKAKKYAQKLAKIYQLTVHVHGDTIHVK [D13G]	1.69
TTVKLGDIKVTFTNPEKAKKYAQKLAKIYQLTVHVHGDTIHVK [D13T]	2.16
TTVKLGDIKVTFLNPEKAKKYAQKLAKIYQLTVHVHGDTIHVK [D13L]	2.08
TTVKLGDIKVTFMNPEKAKKYAQKLAKIYQLTVHVHGDTIHVK [D13M]	2.12
TTVKLGDIKVTFWNPEKAKKYAQKLAKIYQLTVHVHGDTIHVK [D13W]	2.01
TTVKLGDIKVTFANPEKAKKYAQKLAKIYQLTVHVHGDTIHVK [D13A]	2.11
TTVKLGDIKVTFCNPEKAKKYAQKLAKIYQLTVHVHGDTIHVK [D13C]	2.6
TTVKLGDIKVTFKNPEKAKKYAQKLAKIYQLTVHVHGDTIHVK [D13K]	2.2
TTVKLGDIKVTFHNPEKAKKYAQKLAKIYQLTVHVHGDTIHVK [D13H]	1.86
TTVKLGDIKVTFPNPEKAKKYAQKLAKIYQLTVHVHGDTIHVK [D13P]	1.58
TTVKLGDIKVTFINPEKAKKYAQKLAKIYQLTVHVHGDTIHVK [D13I]	1.96
TTVKLGDIKVTFNNPEKAKKYAQKLAKIYQLTVHVHGDTIHVK [D13N]	1.98
TTVKLGDIKVTFYNPEKAKKYAQKLAKIYQLTVHVHGDTIHVK [D13Y]	1.85
TTVKLGDIKVTFRNPEKAKKYAQKLAKIYQLTVHVHGDTIHVK [D13R]	2.13
TTVKLGDIKVTFQNPEKAKKYAQKLAKIYQLTVHVHGDTIHVK [D13Q]	2.1
TTVKLGDIKVTFFNPEKAKKYAQKLAKIYQLTVHVHGDTIHVK [D13F]	1.93
TTVKLGDIKVTFENPEKAKKYAQKLAKIYQLTVHVHGDTIHVK [D13E]	1.9
TTVKLGDIKVTFSNPEKAKKYAQKLAKIYQLTVHVHGDTIHVK [D13S]	2.25
TTVKLGDIKVTFVNPEKAKKYAQKLAKIYQLTVHVHGDTIHVK [D13V]	1.89
TTVKLGDIKVTFDRPEKAKKYAQKLAKIYQLTVHVHGDTIHVK [N14R]	1.26
TTVKLGDIKVTFDEPEKAKKYAQKLAKIYQLTVHVHGDTIHVK [N14E]	1.4
TTVKLGDIKVTFDFPEKAKKYAQKLAKIYQLTVHVHGDTIHVK [N14F]	1.2
TTVKLGDIKVTFDYPEKAKKYAQKLAKIYQLTVHVHGDTIHVK [N14Y]	1.05
TTVKLGDIKVTFDQPEKAKKYAQKLAKIYQLTVHVHGDTIHVK [N14Q]	1.25

Variant	folding stability dG [kcal/mol]
TTVKLGDIKVTFDWPEKAKKYAQKLAKIYQLTVHVHGDTIHVK [N14W]	1.34
TTVKLGDIKVTFDHPEKAKKYAQKLAKIYQLTVHVHGDTIHVK [N14H]	1.61
TTVKLGDIKVTFDKPEKAKKYAQKLAKIYQLTVHVHGDTIHVK [N14K]	1.25
TTVKLGDIKVTFDAPEKAKKYAQKLAKIYQLTVHVHGDTIHVK [N14A]	1.18
TTVKLGDIKVTFDGPEKAKKYAQKLAKIYQLTVHVHGDTIHVK [N14G]	1.05
TTVKLGDIKVTFDCPEKAKKYAQKLAKIYQLTVHVHGDTIHVK [N14C]	2.02
TTVKLGDIKVTFDTPEKAKKYAQKLAKIYQLTVHVHGDTIHVK [N14T]	1.98
TTVKLGDIKVTFDDPEKAKKYAQKLAKIYQLTVHVHGDTIHVK [N14D]	2.38
TTVKLGDIKVTFDMPEKAKKYAQKLAKIYQLTVHVHGDTIHVK [N14M]	1.2
TTVKLGDIKVTFDVPEKAKKYAQKLAKIYQLTVHVHGDTIHVK [N14V]	1.12
TTVKLGDIKVTFDIPEKAKKYAQKLAKIYQLTVHVHGDTIHVK [N14I]	1.22
TTVKLGDIKVTFDPPEKAKKYAQKLAKIYQLTVHVHGDTIHVK [N14P]	0.431
TTVKLGDIKVTFDLPEKAKKYAQKLAKIYQLTVHVHGDTIHVK [N14L]	1.32
TTVKLGDIKVTFDSPEKAKKYAQKLAKIYQLTVHVHGDTIHVK [N14S]	2.12
TTVKLGDIKVTFDNPESAKKYAQKLAKIYQLTVHVHGDTIHVK [K17S]	2.05
TTVKLGDIKVTFDNPEPAKKYAQKLAKIYQLTVHVHGDTIHVK [K17P]	0.853
TTVKLGDIKVTFDNPEIAKKYAQKLAKIYQLTVHVHGDTIHVK [K17I]	2
TTVKLGDIKVTFDNPEMAKKYAQKLAKIYQLTVHVHGDTIHVK [K17M]	2.2
TTVKLGDIKVTFDNPEAAKKYAQKLAKIYQLTVHVHGDTIHVK [K17A]	2.39
TTVKLGDIKVTFDNPERAKKYAQKLAKIYQLTVHVHGDTIHVK [K17R]	2.02
TTVKLGDIKVTFDNPEVAKKYAQKLAKIYQLTVHVHGDTIHVK [K17V]	2
TTVKLGDIKVTFDNPELAKKYAQKLAKIYQLTVHVHGDTIHVK [K17L]	2.17
TTVKLGDIKVTFDNPEYAKKYAQKLAKIYQLTVHVHGDTIHVK [K17Y]	1.9
TTVKLGDIKVTFDNPEDAKKYAQKLAKIYQLTVHVHGDTIHVK [K17D]	2.45

Variant	folding stability dG [kcal/mol]
TTVKLGDIKVTFDNPEFAKKYAQKLAKIYQLTVHVHGDTIHVK [K17F]	1.84
TTVKLGDIKVTFDNPENAKKYAQKLAKIYQLTVHVHGDTIHVK [K17N]	1.91
TTVKLGDIKVTFDNPEHAKKYAQKLAKIYQLTVHVHGDTIHVK [K17H]	2.02
TTVKLGDIKVTFDNPEWAKKYAQKLAKIYQLTVHVHGDTIHVK [K17W]	1.93
TTVKLGDIKVTFDNPEEAKKYAQKLAKIYQLTVHVHGDTIHVK [K17E]	2.32
TTVKLGDIKVTFDNPEGAKKYAQKLAKIYQLTVHVHGDTIHVK [K17G]	1.25
TTVKLGDIKVTFDNPETAKKYAQKLAKIYQLTVHVHGDTIHVK [K17T]	2.15
TTVKLGDIKVTFDNPEQAKKYAQKLAKIYQLTVHVHGDTIHVK [K17Q]	2.21
TTVKLGDIKVTFDNPECAKKYAQKLAKIYQLTVHVHGDTIHVK [K17C]	3.1
TTVKLGDIKVTFDNTEKAKKYAQKLAKIYQLTVHVHGDTIHVK [P15T]	1.4
TTVKLGDIKVTFDNSEKAKKYAQKLAKIYQLTVHVHGDTIHVK [P15S]	1.59
TTVKLGDIKVTFDNHEKAKKYAQKLAKIYQLTVHVHGDTIHVK [P15H]	2.04
TTVKLGDIKVTFDNQEKAKKYAQKLAKIYQLTVHVHGDTIHVK [P15Q]	1.65
TTVKLGDIKVTFDNNEKAKKYAQKLAKIYQLTVHVHGDTIHVK [P15N]	1.43
TTVKLGDIKVTFDNIEKAKKYAQKLAKIYQLTVHVHGDTIHVK [P15I]	2.01
TTVKLGDIKVTFDNGEKAKKYAQKLAKIYQLTVHVHGDTIHVK [P15G]	1.3
TTVKLGDIKVTFDNREKAKKYAQKLAKIYQLTVHVHGDTIHVK [P15R]	1.88
TTVKLGDIKVTFDNLEKAKKYAQKLAKIYQLTVHVHGDTIHVK [P15L]	2.08
TTVKLGDIKVTFDNAEKAKKYAQKLAKIYQLTVHVHGDTIHVK [P15A]	2.09
TTVKLGDIKVTFDNWEKAKKYAQKLAKIYQLTVHVHGDTIHVK [P15W]	2.47
TTVKLGDIKVTFDNKEKAKKYAQKLAKIYQLTVHVHGDTIHVK [P15K]	1.78
TTVKLGDIKVTFDNEEKAKKYAQKLAKIYQLTVHVHGDTIHVK [P15E]	1.72
TTVKLGDIKVTFDNFEKAKKYAQKLAKIYQLTVHVHGDTIHVK [P15F]	3.11
TTVKLGDIKVTFDNMEKAKKYAQKLAKIYQLTVHVHGDTIHVK [P15M]	2.1

Variant	folding stability dG [kcal/mol]
TTVKLGDIKVTFDNDEKAKKYAQKLAKIYQLTVHVHGDTIHVK [P15D]	1.16
TTVKLGDIKVTFDNYEKAKKYAQKLAKIYQLTVHVHGDTIHVK [P15Y]	2.53
TTVKLGDIKVTFDNVEKAKKYAQKLAKIYQLTVHVHGDTIHVK [P15V]	1.96
TTVKLGDIKVTFDNPKKAKKYAQKLAKIYQLTVHVHGDTIHVK [E16K]	1.91
TTVKLGDIKVTFDNPSKAKKYAQKLAKIYQLTVHVHGDTIHVK [E16S]	1.7
TTVKLGDIKVTFDNPVKAKKYAQKLAKIYQLTVHVHGDTIHVK [E16V]	1.85
TTVKLGDIKVTFDNPMKAKKYAQKLAKIYQLTVHVHGDTIHVK [E16M]	1.91
TTVKLGDIKVTFDNPWKAKKYAQKLAKIYQLTVHVHGDTIHVK [E16W]	1.93
TTVKLGDIKVTFDNPFKAKKYAQKLAKIYQLTVHVHGDTIHVK [E16F]	1.9
TTVKLGDIKVTFDNPPKAKKYAQKLAKIYQLTVHVHGDTIHVK [E16P]	0.35
TTVKLGDIKVTFDNPRKAKKYAQKLAKIYQLTVHVHGDTIHVK [E16R]	1.82
TTVKLGDIKVTFDNPTKAKKYAQKLAKIYQLTVHVHGDTIHVK [E16T]	1.77
TTVKLGDIKVTFDNPAKAKKYAQKLAKIYQLTVHVHGDTIHVK [E16A]	1.94
TTVKLGDIKVTFDNPIKAKKYAQKLAKIYQLTVHVHGDTIHVK [E16I]	1.98
TTVKLGDIKVTFDNPCKAKKYAQKLAKIYQLTVHVHGDTIHVK [E16C]	2.66
TTVKLGDIKVTFDNPDKAKKYAQKLAKIYQLTVHVHGDTIHVK [E16D]	1.96
TTVKLGDIKVTFDNPLKAKKYAQKLAKIYQLTVHVHGDTIHVK [E16L]	1.92
TTVKLGDIKVTFDNPNKAKKYAQKLAKIYQLTVHVHGDTIHVK [E16N]	1.7
TTVKLGDIKVTFDNPGKAKKYAQKLAKIYQLTVHVHGDTIHVK [E16G]	1.54
TTVKLGDIKVTFDNPHKAKKYAQKLAKIYQLTVHVHGDTIHVK [E16H]	1.8
TTVKLGDIKVTFDNPYKAKKYAQKLAKIYQLTVHVHGDTIHVK [E16Y]	1.9
TTVKLGDIKVTFDNPQKAKKYAQKLAKIYQLTVHVHGDTIHVK [E16Q]	1.89
